Results: PMC5288973

Target: taxol-stabilized microtubules assembled from bovine brain tubulin (bovine) (UniProt Q6B856)
Test: co-sedimentation; various amounts of MBP-GPT2 with a constant amount of taxol-stabilized MTs polymerized from 1 uM tubulin heterodimer; fit of q = (qmax x c)/(Kd + c), one GPT2 binding site on the tubulin dimer assumed

“MBP-GPT2 (full-length Growing Plus-end Tracking protein 2 fused to maltose-binding protein) (from UniProt Q94B38 69-388) (natural protein)” was tested. Which stoichiometry N (mol of GPT2 per mol of tubulin dimer) did it give?
Its stoichiometry N (mol of GPT2 per mol of tubulin dimer) is 2.5.
